To fix the notation:
B1: SicpT45 peptide VPVpTPSTTK (peptide)
peptide: VPV[pT]PSTTK
notes: also called Sic1 pT45 phosphopeptide; Sic1 15-pT45 peptide

Results on 24 molecules are retold here after patent US20040072319A1, “Molecules that modulate ubiquintin-dependent proteolysis and methods for identifying same” (priority 2003, published 2004).

“And” between values parts separate entries of the source, which are not always exact repeats. Equal entries are not always repeated. Square brackets hold non-standard residues; d marks the D form. Ends that are not written are not given here. Peptide text beside a SMILES is read from it. pY = N[C@@H](Cc1ccc(OP(=O)(O)O)cc1)C(=O)O; pT = C[C@@H](OP(=O)(O)O)[C@H](N)C(=O)O; pS = N[C@@H](COP(=O)(O)O)C(=O)O

As usually defined, the Kd is the equilibrium constant for the complex coming apart.

In one test the target is T1, Skp1-Cdc4 complex (yeast, UniProt P07834 1-779; P52286 1-194, limits assumed).
T1 construct: Purified complex (Gst removed by TEV, size exclusion) for fluorescence polarization and SPOTS arrays; also called Cdc4/Skp1; cdc4/skp1 complex
T1 sequence (P07834 whole entry, chain 1 of 2): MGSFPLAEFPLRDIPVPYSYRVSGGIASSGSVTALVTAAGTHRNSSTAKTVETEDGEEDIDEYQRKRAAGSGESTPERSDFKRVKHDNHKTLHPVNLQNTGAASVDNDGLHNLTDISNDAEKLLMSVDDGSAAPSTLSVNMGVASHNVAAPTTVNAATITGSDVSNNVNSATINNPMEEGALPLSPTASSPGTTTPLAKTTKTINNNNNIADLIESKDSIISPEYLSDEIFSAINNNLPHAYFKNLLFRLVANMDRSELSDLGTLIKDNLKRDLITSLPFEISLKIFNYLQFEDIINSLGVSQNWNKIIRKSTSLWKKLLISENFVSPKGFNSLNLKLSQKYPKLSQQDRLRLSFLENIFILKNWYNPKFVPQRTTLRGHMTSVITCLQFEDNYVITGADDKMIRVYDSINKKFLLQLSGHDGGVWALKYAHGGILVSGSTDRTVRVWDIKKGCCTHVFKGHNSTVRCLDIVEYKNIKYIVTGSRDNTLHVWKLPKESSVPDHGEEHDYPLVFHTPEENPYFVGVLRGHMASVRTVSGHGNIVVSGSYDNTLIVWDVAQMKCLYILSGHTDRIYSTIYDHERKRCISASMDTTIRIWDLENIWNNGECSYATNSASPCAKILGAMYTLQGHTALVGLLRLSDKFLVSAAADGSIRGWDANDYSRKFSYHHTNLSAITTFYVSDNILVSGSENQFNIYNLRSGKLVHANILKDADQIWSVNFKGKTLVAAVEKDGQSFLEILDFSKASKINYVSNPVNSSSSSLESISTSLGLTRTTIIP
T1 sequence (P52286 whole entry, chain 2 of 2): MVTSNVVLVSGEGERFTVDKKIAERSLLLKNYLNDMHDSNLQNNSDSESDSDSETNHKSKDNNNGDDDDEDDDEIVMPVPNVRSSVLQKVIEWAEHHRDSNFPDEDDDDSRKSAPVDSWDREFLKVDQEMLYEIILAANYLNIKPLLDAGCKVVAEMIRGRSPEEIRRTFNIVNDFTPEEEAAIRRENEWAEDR
As to the kind of experiment: fluorescence polarization, 5 nM fluorescein-labeled peptide, Cdc4/Skp1 titrated.
Settings: not given
(Fluorescence polarisation rises when a labelled molecule tumbles more slowly, as on binding a larger partner.)
In turn, CycEK-1-9mer GLKpTPPQSG (peptide) displayed a dissociation constant (Kd) of 6 µM. Take CycEK5-9mer GLLpTPPQSK (peptide): the Kd was found to be 2.4 µM. Molecule CycEK3-9mer GLLpTPPKSG (peptide) showed a dissociation constant (Kd) of 5.1 µM. Still for that read-out and setting: the value for CycE-5mer LLpTPP (peptide) was 0.85 µM; that for CycEK-2-9mer GKLpTPPQSG (peptide) was 12 µM; that for CycEK4-9mer GLLpTPPQKG (peptide) was 4.3 µM. CycEK2-9mer GLLpTPKQSG (peptide) gave a Kd of 6.3 µM.

For the next test, the target named is Cdc4 (Saccharomyces cerevisiae, UniProt P07834). As to the kind of experiment: Fluorescence polarization equilibrium binding of peptides to Cdc4.
Settings: not given
Set-up: made in house; host or cells: Cdc4: baculovirus-infected insect (Sf9) cells; Gst-Skp1: E. coli BL21 codon plus; species or system yeast. As to the method:
Equilibrium binding constant determination was carried out using fluorescence polarization on a Beacon 2000 Fluorescence Polarization System (Pan Vera, Wis.) equipped with a 100 μL sample chamber. Fluorescein-labeled probes were prepared through the reaction of carboxyterminal-peptides with 5-(and-6)-carboxyfluorescein succinimidyl ester (Molecular Probes), purified by reverse-phase HPLC, and confirmed by mass spectrometry. Binding studies were conducted with 5 nM fluorescein-labeled probe dissolved in PBS containing 100 μg/ml BSA and 1 mM dithiothreitol. Reaction mixtures were allowed to equilibrate for 10 minutes at room temperature prior to each measurement. All fluorescence polarization measurements were conducted at 22° C.
On to VPVpTPSTTK (VPV[pT]PSTTK) [SicpT45], for which the “binding to Cdc4 (in words)” value is “could neither bind stably to Cdc4”. As for GLLpYPPQSG (GLL[pY]PPQSG) [CycEpY-9mer], the “binding to Cdc4 (in words)” value was “failed to bind”. Regarding “Sic1 15-pT45: Sic1 phosphopeptide centered on pT45; possibly the SicpT45 peptide of Table 1”, the “binding to Cdc4 (in words)” value was “does not measurably bind Cdc4”.

With “PKPLNLSKPIpSPPPSLKKTA (PKPLNLSKPI[pS]PPPSLKKTA) [Far 1 pS87]”, the “binding to Cdc4 (in words)” value is “could neither bind stably to Cdc4”.

Still in this test, the particulars now being: K, (μM), Table 1; average of at least 3 sets of readings, ± SEM; ND = no binding detected up to [Cdc4/Skp1] of 10 μM; ˜ = saturation binding not achieved.
On to `CC[C@H](C)[C@H](NC(=O)[C@H](CC(C)C)NC(=O)[C@H](CCC(N)=O)NC(=O)[C@H](CCC(=O)O)NC(=O)[C@H](CCC(N)=O)NC(=O)[C@@H]1CCCN1C(=O)[C@@H](NC(=O)[C@H](Cc1ccccc1)NC(=O)[C@H](CCC(N)=O)NC(=O)[C@@H]1CCCN1C(=O)[C@H](Cc1ccccc1)NC(=O)[C@H](CCC(=O)O)NC(=O)CNC(=O)[C@@H](NC(=O)c1ccc2c(c1)C(=O)OC21c2ccc(O)cc2Oc2cc(O)ccc21)[C@@H](C)O)[C@@H](C)OP(=O)(O)O)C(=O)O` [FarpT306, TGEFPQFpTPQEQLI] (HELM PEPTIDE1{[O=C1OC2(c3ccc(O)cc3Oc3cc(O)ccc32)c2ccc(C(=O)[*:2])cc21].T.G.E.F.P.Q.F.[C[C@@H](OP(=O)(O)O)[C@H](N[*:1])C(=O)[*:2]].P.Q.E.Q.L.I}$$$$V2.0), for which the Kd is roughly 25 µM. Consider `CSCC[C@H](NC(=O)[C@@H]1CCCN1C(=O)[C@@H]1CCCN1C(=O)[C@@H](NC(=O)[C@@H](NC(=O)[C@@H]1CCCN1C(=O)[C@@H]1CCCN1C(=O)c1ccc2c(c1)C(=O)OC21c2ccc(O)cc2Oc2cc(O)ccc21)C(C)C)[C@@H](C)OP(=O)(O)O)C(=O)N[C@@H](CO)C(=O)N1CCC[C@H]1C(=O)O` [Ash 1 pT290, PPVpTPPMSP] (HELM PEPTIDE1{[O=C1OC2(c3ccc(O)cc3Oc3cc(O)ccc32)c2ccc(C(=O)[*:2])cc21].P.P.V.[C[C@@H](OP(=O)(O)O)[C@H](N[*:1])C(=O)[*:2]].P.P.M.S.P}$$$$V2.0), for which the Kd is roughly 25 µM. As to `CC[C@H](C)[C@H](NC(=O)[C@@H]1CCCN1C(=O)[C@@H](NC(=O)[C@H](CC(C)C)NC(=O)[C@H](CC(C)C)NC(=O)[C@H](CCC(=O)O)NC(=O)c1ccc2c(c1)C(=O)OC21c2ccc(O)cc2Oc2cc(O)ccc21)[C@@H](C)OP(=O)(O)O)C(=O)N[C@@H](CC(C)C)C(=O)N[C@@H](C)C(=O)N[C@@H](Cc1ccccc1)C(=O)O` [Pc17, ELLpTPILAF] (HELM PEPTIDE1{[O=C1OC2(c3ccc(O)cc3Oc3cc(O)ccc32)c2ccc(C(=O)[*:2])cc21].E.L.L.[C[C@@H](OP(=O)(O)O)[C@H](N[*:1])C(=O)[*:2]].P.I.L.A.F}$$$$V2.0), the Kd was roughly 40 µM. Consider `CC(C)C[C@H](NC(=O)CNC(=O)c1ccc2c(c1)C(=O)OC21c2ccc(O)cc2Oc2cc(O)ccc21)C(=O)N[C@@H](CC(C)C)C(=O)N[C@H](C(=O)N1CCC[C@H]1C(=O)N1CCC[C@H]1C(=O)N[C@@H](CCC(N)=O)C(=O)N[C@@H](CO)C(=O)NCC(=O)O)[C@@H](C)OP(=O)(O)O` [CycE-9mer, GLLpTPPQSG] (HELM PEPTIDE1{[O=C1OC2(c3ccc(O)cc3Oc3cc(O)ccc32)c2ccc(C(=O)[*:2])cc21].G.L.L.[C[C@@H](OP(=O)(O)O)[C@H](N[*:1])C(=O)[*:2]].P.P.Q.S.G}$$$$V2.0), for which the Kd was 1 ± 0.05 µM.

`CC(=O)NCCCC[C@H](NC(=O)[C@@H]1CCCN1C(=O)[C@@H]1CCCN1C(=O)[C@@H](NC(=O)[C@H](CC(C)C)NC(=O)[C@H](CC(C)C)NC(=O)CNC(=O)c1ccc2c(c1)C(=O)OC21c2ccc(O)cc2Oc2cc(O)ccc21)[C@@H](C)OP(=O)(O)O)C(=O)N[C@@H](CO)C(=O)NCC(=O)O` [CycEK3Ac-9mer, GLLpTPPK(Ac)SG] (HELM PEPTIDE1{[O=C1OC2(c3ccc(O)cc3Oc3cc(O)ccc32)c2ccc(C(=O)[*:2])cc21].G.L.L.[C[C@@H](OP(=O)(O)O)[C@H](N[*:1])C(=O)[*:2]].P.P.K.S.G}|PEPTIDE2{[ac]}$PEPTIDE1,PEPTIDE2,8:R3-1:R2$$$V2.0): the Kd turned out to be 1 ± 0.1 µM.

The test is the same for the next values; noted with them: dissociation constant Kd for Cdc4.
Consider `CC(C)C[C@H](NC(=O)CNC(=O)c1ccc2c(c1)C(=O)OC21c2ccc(O)cc2Oc2cc(O)ccc21)C(=O)N[C@@H](CC(C)C)C(=O)N[C@@H](COP(=O)(O)O)C(=O)N1CCC[C@H]1C(=O)N1CCC[C@H]1C(=O)N[C@@H](CCC(N)=O)C(=O)N[C@@H](CO)C(=O)NCC(=O)O` [CycEpS-9mer, GLLpSPPQSG] (HELM PEPTIDE1{[O=C1OC2(c3ccc(O)cc3Oc3cc(O)ccc32)c2ccc(C(=O)[*:2])cc21].G.L.L.[O=C([C@H](COP(=O)(O)O)N[*:1])[*:2]].P.P.Q.S.G}$$$$V2.0), for which the dissociation constant (Kd) amounted to 6 µM. Take `CC(C)C[C@H](NC(=O)[C@@H](NC(=O)[C@@H]1CCCN1C(=O)[C@@H](NC(=O)[C@@H]1CCCN1C(=O)[C@H](CC(C)C)NC(=O)[C@H](Cc1ccccc1)NC(=O)c1ccc2c(c1)C(=O)OC21c2ccc(O)cc2Oc2cc(O)ccc21)[C@@H](C)OP(=O)(O)O)C(C)C)C(=O)N[C@@H](CCC(=O)O)C(=O)N[C@@H](CC(=O)O)C(=O)O` [Gcn4-9mer, FLPpTPVLED] (HELM PEPTIDE1{[O=C1OC2(c3ccc(O)cc3Oc3cc(O)ccc32)c2ccc(C(=O)[*:2])cc21].F.L.P.[C[C@@H](OP(=O)(O)O)[C@H](N[*:1])C(=O)[*:2]].P.V.L.E.D}$$$$V2.0): the Kd is 0.675 µM and 0.88 µM.

A further test deals with T2, Cdc4-Skp1 complexes (Saccharomyces cerevisiae, UniProt P07834).
T2 construct: made in house; host or cells: insect cells (baculovirus)
T2 sequence (P07834 whole entry): as the sequence (P07834 whole entry, chain 1 of 2) above
T2 sequence (P52286 whole entry partner): as the sequence (P52286 whole entry, chain 2 of 2) above
As to the kind of experiment: Peptide out-competition of phosphorylated substrates binding to Cdc4-Skp1. Set-up: species or system yeast. The note with it: peptide 3, 17, 68 μM in FIG. 6f. An excerpt:
SCF complexes were purified from SF9 cells infected with recombinant baculoviruses and used in binding assays and ubiquitination reactions essentially as described (7). Gst-Skp1 expressed in BL21 codon plus cells (Stratagene) then purified on glutathione resin was used to capture full Cdc4 from insect cell lysates. Truncated forms of Cdc4 were enriched prior to Gst-Skp1 capture by affinity purification of hexahistidine fusion proteins on a metal chelate column. The Skp1-Cdc4 complexes were released from the Gst moiety by cleavage with TEV protease and further purified by size exclusion chromatography on a Superdex S75 or S200 column. Biotin labeled […]p[…] (SEQ ID NO. 1), […] (SEQ ID NO. 12), and APPLSQEpTFSDLWK (SEQ ID NO. 13) were synthesized by addition of d-biotin (Sigma) with an Fmoc-e-aminocaproic acid (Bachem) spacer to carboxy-terminal peptides. […] Streptavidin-agarose beads (Sigma) were incubated in the presence of biotinylated peptide for 90 min. at 4° C. Beads were washed 3 times and then incubated with lysates from Cdc4 expressing baculovirus infected Sf9 cells. Beads were washed 4 times, after which SDS-PAGE gel loading buffer was added and the beads were boiled for 5 min. Proteins were separated by SDS-PAGE and visualized by silver stain. Peptide out-competition of phosphorylated substrates was carried out with immunopurified Skp1^FLAG-Cdc4 from insect cells, which were incubated with phosphopeptides prior to addition of phospho-Sic1 or phospho-Cyclin E-Cdk2. For kinase inhibition assays, purified recombinant Clb5-Cdc28 complex (30 ng) was incubated with mutant forms of Sic1 (40 ng) and histone H1 (HH1, 2 μg) for 1 h on ice prior to addition of [^32P]-γ-ATP and incubation at 25° C. for 30 min. Samples were separated by SDS-PAGE and visualized by autoradiography.
Consider VPVpTPSTTK (VPV[pT]PSTTK) [SicpT45], for which the “competition with substrates (Sic1, cyclin E1, Far1) for binding to Cdc4” value (“competition with substrates” for short) was “nor block the interaction”. For “Sic1 15-pT45: Sic1 phosphopeptide centered on pT45; possibly the SicpT45 peptide of Table 1”, the “competition with substrates” value was “does not measurably bind Cdc4 or compete with substrates”. Consider “PKPLNLSKPIpSPPPSLKKTA (PKPLNLSKPI[pS]PPPSLKKTA) [Far 1 pS87]”, for which the “competition with substrates” value is listed as “nor block the interaction”.

The target of a further test is T1, Skp1-Cdc4 complex. As to the kind of experiment: fluorescence polarization.
Settings: not given
With VEQ[pT]PKKPG [p27pT187 peptide VEQpTPKKPG], the binding result is “no binding (tested: up to [Cdc4/Skp1] of 10 µM)”. Turning to B1, the binding result was “no binding (tested: up to [Cdc4/Skp1] of 10 µM)”.

As for NVQ[pT]PTLMA (also called Pcl2) [Pc12 peptide NVQpTPTLMA], the binding result was “no binding (tested: up to [Cdc4/Skp1] of 10 µM)”. As for GLL[pT]APQSG [CycEA1-9mer GLLpTAPQSG], the binding result is “no binding (tested: up to [Cdc4/Skp1] of 10 µM)”. As to GLL[pY]PPQSG (also called CycE19-pY380) [CycEpY-9mer GLLpYPPQSG], the binding result is “no binding (tested: up to [Cdc4/Skp1] of 10 µM)”. With PKPLNLSKPI[pS]PPPSLKKTA [Far 1 pS87 peptide PKPLNLSKPIpSPPPSLKKTA], the binding result was “no binding (tested: up to [Cdc4/Skp1] of 10 µM)”.
